Assay [1] concerns the target T1, human ChemerinR (human, UniProt Q99788 3-373).
T1 sequence: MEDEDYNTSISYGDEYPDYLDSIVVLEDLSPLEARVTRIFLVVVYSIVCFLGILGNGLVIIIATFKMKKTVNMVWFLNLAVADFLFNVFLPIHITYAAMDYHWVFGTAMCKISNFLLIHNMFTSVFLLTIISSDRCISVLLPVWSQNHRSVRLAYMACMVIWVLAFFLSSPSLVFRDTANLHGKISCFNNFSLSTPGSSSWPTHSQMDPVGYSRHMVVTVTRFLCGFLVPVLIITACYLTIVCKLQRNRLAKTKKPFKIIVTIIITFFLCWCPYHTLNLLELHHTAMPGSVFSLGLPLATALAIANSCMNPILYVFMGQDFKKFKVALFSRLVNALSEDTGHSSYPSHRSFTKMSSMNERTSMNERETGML
Put plainly: cell-based or functional assay.

Assay [2] addresses T1, human ChemerinR. Put plainly: cell-based or functional assay. This is another data set of the same source.
Assay [3] has as its target T1, human ChemerinR. Put plainly: competition binding on ChemerinR-expressing CHO-K1 cells, tracer 125I-…, one-site model, 3 experiments. On the procedure: (§1) ChemerinR expressing CHO-K1 cells were collected from plates with PBS supplemented with 5 mM EDTA, gently pelleted for 2 min at 1000×g, and resuspended in binding buffer (50 mM HEPES, pH 7.4, 1 mM CaCl₂, 5 mM MgCl₂, 0.5% BSA). […] Filters were counted in a […]-scintillation counter. Binding parameters were determined with the PRISM software (Graphpad Software) using nonlinear regression applied to a one-site competition model.

Assay [4] addresses T1, human ChemerinR. Put plainly: competition binding on ChemerinR-expressing CHO-K1 cells; tracer (competed ligand) 125I-…. On the procedure:
as §1

No end group written: not given here.

For PHSFYFPGQFAFS (not fully specified) [Human Chemerin-13], the “Mean EC50, intracellular calcium release (aequorin assay)” value with human ChemerinR [1] amounted to 14 nM.

On to YFPGQFAAS [Human [Ala-8]Chemerin-9], for which the “Mean EC50, intracellular calcium release (aequorin assay)” value with human ChemerinR [1] came out at 38000 nM.

As to HSFYFPGQFAFS [Human Chemerin-12], the “Mean EC50, intracellular calcium release (aequorin assay)” value with human ChemerinR [1] was 12.2 nM.

As to AFPGQFAFS [Human [Ala-1]Chemerin-9], the “Mean EC50, intracellular calcium release (aequorin assay)” value with human ChemerinR [1] is 496 nM.

Regarding YAPGQFAFS [Human [Ala-2]Chemerin-9], in the assay with human ChemerinR [1], the “Mean EC50, intracellular calcium release (aequorin assay)” value was 155 nM.

As for QRAGEDPHSFYFPGQFAFS [Human Chemerin-19], in the assay with human ChemerinR [1], the “Mean EC50, intracellular calcium release (aequorin assay)” value came out at 16.7 nM.

In the case of YFPGQAAFS [Human [Ala-6]Chemerin-9], in the assay with human ChemerinR [1], the “Mean EC50, intracellular calcium release (aequorin assay)” value worked out at 5000 nM.

With QRAGEDPHSFYFPGQFAF [Human [delta-Ser19]Chemerin-19], the “Mean EC50, intracellular calcium release (aequorin assay)” value in the assay with human ChemerinR [1] came out at 97 nM.

As to FPGQFAFS [Human Chemerin-8], the “Mean EC50, intracellular calcium release (aequorin assay)” value with human ChemerinR [1] was found to be 2000 nM.

With PGQFAFS [Human Chemerin-7], the “Mean EC50, intracellular calcium release (aequorin assay)” value with human ChemerinR [1] came out at 220000 nM.

B1: human Prochemerin (recombinant, unprocessed) (ligand)
chain: ELTEAQRRGLQVALEEFHKHPPVQWAFQETSVESAVDTPFPAGIFVRLEFKLQQTSCRKRDWKKPECKVRPNGRKRKCLACIKLGSEDKVLGRLVHCPIETQVLREAEEHQETQCLRVQRAGEDPHSFYFPGQFAFSKALPRS
Consider B1, for which the “EC50, biological activity on CHO-K1 cells expressing human ChemerinR (aequorin assay)” value with human ChemerinR [2] was determined as 393 nM.

For QRAGEDPHSFYFPGQF [Human [delta-Ala17Phe18Ser19]Chemerin-19], the “Mean EC50, intracellular calcium release (aequorin assay)” value with human ChemerinR [1] was 130000 nM.

For FYFPGQFAFS [Human Chemerin-10], the “Mean EC50, intracellular calcium release (aequorin assay)” value in the assay with human ChemerinR [1] worked out at 8.2 nM.

With QRAGEDPHSFYFPGQFAFSK [Human [Lys20]Chemerin-19], in the assay with human ChemerinR [1], the “Mean EC50, intracellular calcium release (aequorin assay)” value worked out at 170000 nM.

Turning to QRAGEDPHSFYFPGQFA [Human [delta-Phe18Ser19]Chemerin-19], the “Mean EC50, intracellular calcium release (aequorin assay)” value with human ChemerinR [1] is 220000 nM.

B2: YHSFFFPGQFAFS peptide (unlabeled) (peptide)
peptide: YHSFFFPGQFAFS
notes: also called unlabeled peptide; unlabel peptide
For B2, the “EC50, aequorin-based assay” value in the assay with human ChemerinR [2] came to 28 nM. In addition, in the assay with human ChemerinR [3], the inhibition constant (Ki) is 12.1 nM and the pKi was found to be 7.95. Moreover, the “IC50 (read off the curve)” value with human ChemerinR [4] was ~20 nM.

QRAGEDPHSFYFPGQFAFSKALPRS [Human prochemerin-25]: the “Mean EC50, intracellular calcium release (aequorin assay)” value with human ChemerinR [1] amounted to 160000 nM.

For the origin of these results see patent US20040086966A1 (EUROSCREEN S A, published 2004).
